Results from publication PMC11401937 (Nature Communications, 2024).

Target: the molecule itself
Assay: cryo-EM structure

B1: Human Best1 protein purified for cryo-EM (GABA-bound pentamer) (natural protein)
chain: TITYTSQVANARLGSFSRLLLCWRGSIYKLLYGEFLIFLLCYYIIRFIYRLALTEEQQLMFEKLTLYCDSYIQLIPISFVLGFYVTLVVTRWWNQYENLPWPDRLMSLVSGFVEGKDEQGRLLRRTLIRYANLGNVLILRSVSTAVYKRFPSAQHLVQAGFMTPAEHKQLEKLSLPHNMFWVPWVWFANLSMKAWLGGRIRDPILLQSLLNEMNTLRTQCGHLYAYDWISIPLVYTQVVTVAVYSFFLTCLVGRQFLNPAKAYPGHELDLVVPVFTFLQFFFYVGWLKVAEQLINPFGEDDDDFETNWIVDRNLQVSLLAVDEMHQDLPRMEPDMYWNKPEPQPPYTAASAQFRRASFMGSTFNISLNKEEMEFQPNQEDEEDAHAGIIGRFLGLQSHDHHPPRANSRTKLLWPKRESLLHEGLPKNHKAAKQNVRGQEDNKAWKLKAVDAFKSAPLYQRPGYYSAPQTPLSPTPMFFPLEPSAPSKLHSVTGIDTKDKSLKTVSSGAKKSFELLSESDGALMEHPEVSQVRRKTVEFNLTDMPEIPENHLKEPLEQSPTNIHTTLKDHMDPYWALENRDEAHS
stoichiometry N: 5
